US20020094544A1

Columns and labels:
[1] = target: Human opioid receptor subtype µ (human) (UniProt P35372); assay: cell-based or functional assay
[2] = target: Human opioid receptor subtype δ2 (human) (UniProt P41143); assay: cell-based or functional assay
Sequence of Human opioid receptor subtype δ2 (human) (P41143 whole entry, stated change not applied): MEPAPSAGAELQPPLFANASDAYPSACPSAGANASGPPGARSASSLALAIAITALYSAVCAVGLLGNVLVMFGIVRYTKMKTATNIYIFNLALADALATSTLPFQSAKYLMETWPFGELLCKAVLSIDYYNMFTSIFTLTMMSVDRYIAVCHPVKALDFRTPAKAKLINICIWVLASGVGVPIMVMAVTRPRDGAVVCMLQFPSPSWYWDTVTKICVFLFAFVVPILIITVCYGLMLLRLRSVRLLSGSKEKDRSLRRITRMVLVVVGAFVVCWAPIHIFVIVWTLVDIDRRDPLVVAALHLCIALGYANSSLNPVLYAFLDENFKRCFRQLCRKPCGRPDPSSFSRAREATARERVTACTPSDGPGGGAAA

Sequence of Human opioid receptor subtype µ (human) (P35372 whole entry): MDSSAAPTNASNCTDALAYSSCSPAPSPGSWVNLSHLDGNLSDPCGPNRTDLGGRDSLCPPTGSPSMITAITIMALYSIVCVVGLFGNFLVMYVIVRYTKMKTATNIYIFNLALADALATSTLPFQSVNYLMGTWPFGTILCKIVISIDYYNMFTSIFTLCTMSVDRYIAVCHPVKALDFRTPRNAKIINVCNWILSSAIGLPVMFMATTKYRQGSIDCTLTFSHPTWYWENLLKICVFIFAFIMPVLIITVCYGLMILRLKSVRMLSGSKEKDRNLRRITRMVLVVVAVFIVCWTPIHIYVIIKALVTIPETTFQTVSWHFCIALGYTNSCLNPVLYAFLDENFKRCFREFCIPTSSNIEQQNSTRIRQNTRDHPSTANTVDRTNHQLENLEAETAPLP

increase in basal level fluorescence (binding of BODIPY-FL-GTPγS to receptor arrays) [1]: 2.5 fold
increase in basal level fluorescence (binding of BODIPY-FL-GTPγS to receptor arrays) [2]: 10 fold
Substance: dynorphin A (from UniProt P01213 207-223) (peptide)
